{
  "source": "patent US20250277199",
  "about": "“NOVEL CRISPR-CAS NUCLEASES FROM METAGENOMES” (Brain Biotech AG, published 2025)",
  "binders": {"B1": {"name": "malQ gRNA (BMC stem-loop + 24 nt spacer) ; malQ protospacer (ssRNA ; dsDNA)", "RNA": "GAUUUCUACUAUUGUAGAUGUGGCGGUACGUUGAUGCAUCGCG", "DNA 1": "GTGGCGGTACGTTGATGCATCGCG", "DNA 2": "CGCGATGCATCAACGTACCGCCAC"}},
  "molecular_target": "T1, BMC05 (uncultured bacterium (metagenome))",
  "T1 chain": "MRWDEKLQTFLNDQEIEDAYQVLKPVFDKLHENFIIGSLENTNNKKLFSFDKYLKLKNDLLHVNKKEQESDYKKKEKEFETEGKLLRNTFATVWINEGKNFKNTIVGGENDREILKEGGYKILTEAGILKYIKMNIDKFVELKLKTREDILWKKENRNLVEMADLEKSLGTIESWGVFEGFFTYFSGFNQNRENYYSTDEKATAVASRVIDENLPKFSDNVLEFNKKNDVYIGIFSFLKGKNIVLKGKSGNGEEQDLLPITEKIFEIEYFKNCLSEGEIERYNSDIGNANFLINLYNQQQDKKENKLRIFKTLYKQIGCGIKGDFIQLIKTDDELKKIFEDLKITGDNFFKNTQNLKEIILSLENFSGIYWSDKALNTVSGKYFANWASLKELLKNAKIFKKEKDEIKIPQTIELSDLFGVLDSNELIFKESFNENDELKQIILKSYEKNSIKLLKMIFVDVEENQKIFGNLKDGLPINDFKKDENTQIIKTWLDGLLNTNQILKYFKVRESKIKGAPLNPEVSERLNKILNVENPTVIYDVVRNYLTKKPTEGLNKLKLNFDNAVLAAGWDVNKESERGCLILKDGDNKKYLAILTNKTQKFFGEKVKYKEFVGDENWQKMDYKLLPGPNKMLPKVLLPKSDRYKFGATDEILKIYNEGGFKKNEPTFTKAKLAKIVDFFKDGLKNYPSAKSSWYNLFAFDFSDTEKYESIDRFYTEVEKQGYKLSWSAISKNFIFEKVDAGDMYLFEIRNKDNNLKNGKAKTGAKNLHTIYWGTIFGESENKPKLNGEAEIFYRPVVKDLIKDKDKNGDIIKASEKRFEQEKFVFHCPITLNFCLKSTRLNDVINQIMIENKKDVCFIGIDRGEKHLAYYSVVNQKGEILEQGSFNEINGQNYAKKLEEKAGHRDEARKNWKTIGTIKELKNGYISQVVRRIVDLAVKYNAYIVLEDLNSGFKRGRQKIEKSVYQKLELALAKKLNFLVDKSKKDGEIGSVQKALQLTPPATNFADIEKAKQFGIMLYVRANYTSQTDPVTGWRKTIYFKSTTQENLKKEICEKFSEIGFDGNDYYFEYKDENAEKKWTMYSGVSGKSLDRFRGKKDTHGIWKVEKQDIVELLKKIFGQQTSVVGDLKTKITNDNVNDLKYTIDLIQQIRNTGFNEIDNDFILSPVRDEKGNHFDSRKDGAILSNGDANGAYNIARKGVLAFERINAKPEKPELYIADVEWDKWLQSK",
  "experiment": "cell_activity; PAM not stated; E. coli depletion, 30 C",
  "procedure,_shortened": "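E. coli carrying arabinose-induced (0.2%) BMC nuclease, grown at 30° C., made electrocompetent and electroporated with 50-100 ng plasmid carrying gRNA against malQ. Transformants plated on selective M9-glucose agar with kanamycin/ampicillin (± nourseothricin), and growth scored after 48 h at 30° C.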",
  "data": [
    {"binder": "B1", "values": [
      {"measurement": "activity", "value": "> 99.9", "unit": "% colony reduction"}
    ]}
  ]
}
